Assay results taken from PMC9965349 (Viruses, 2023).
Read-outs that look alike come from different tables or passages of the source. Residues, ends and D or L forms follow the SMILES beside them.

How the values were obtained:
PEDV S1 protein = PEDV S1 protein (Porcine epidemic diarrhea virus, UniProt Q91AV1); assay: SPR kinetic measurement (Biacore X100, CM5 chip); type: binding
Vero cells = assay: Cytotoxicity assay (CCK-8); type: cell-based, African green monkey
[1] = target: T1, porcine epidemic diarrhea virus S protein (PEDV-S1) (porcine epidemic diarrhea virus); assay: SPR; conditions: both partners purified
T1 chain: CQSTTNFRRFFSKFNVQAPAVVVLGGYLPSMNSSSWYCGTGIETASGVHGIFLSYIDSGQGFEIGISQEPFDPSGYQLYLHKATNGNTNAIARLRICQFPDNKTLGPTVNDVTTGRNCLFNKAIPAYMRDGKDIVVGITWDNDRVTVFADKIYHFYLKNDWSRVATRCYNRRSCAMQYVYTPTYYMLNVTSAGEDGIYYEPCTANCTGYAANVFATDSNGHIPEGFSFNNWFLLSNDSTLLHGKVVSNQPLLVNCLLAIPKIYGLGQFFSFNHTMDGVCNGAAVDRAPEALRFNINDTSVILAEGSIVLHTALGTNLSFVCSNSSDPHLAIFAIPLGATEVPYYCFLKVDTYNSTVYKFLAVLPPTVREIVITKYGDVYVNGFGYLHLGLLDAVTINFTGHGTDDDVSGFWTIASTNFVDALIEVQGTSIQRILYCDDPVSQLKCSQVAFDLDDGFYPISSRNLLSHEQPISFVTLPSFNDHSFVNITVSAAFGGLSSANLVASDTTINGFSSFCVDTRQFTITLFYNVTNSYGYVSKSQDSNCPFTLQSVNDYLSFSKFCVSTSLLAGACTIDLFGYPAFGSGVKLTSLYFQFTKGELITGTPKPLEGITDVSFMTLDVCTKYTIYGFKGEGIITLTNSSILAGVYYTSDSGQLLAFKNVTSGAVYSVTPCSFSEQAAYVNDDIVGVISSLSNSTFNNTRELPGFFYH

[2] = target: T1, porcine epidemic diarrhea virus S …; assay: ELISA; conditions: both partners purified
[3] = SPR, 1:1 binding fit, peptide 0.78125-25 μM, HBS-EP pH 7.4, 30 μL/min, 120 s association, 120 s dissociation

Molecule | Kd (PEDV S1 protein) | Kd [1] | koff [1] | kon [1] | P/N value [2] | also measured
N=C(N)NCCC[C@H](NC(=O)[C@H](CCCCN)NC(=O)[C@H](CO)NC(=O)[C@H](CCCCN)NC(=O)[C@H](Cc1c[nH]c2ccccc12)NC(=O)[C@@H](N)Cc1ccccc1)C(=O)O [compound 110766] | 216 nM | – | – | – | – | Cell viability (CCK-8) (Vero cells; 0.78125-400 µM, 24 h at 37 °C, normalized to control without peptide): over 90%; Cytotoxicity (in words) (Vero cells; CCK-8): not toxic to vero cells
C[C@H](NC(=O)[C@H](CCC(=O)O)NC(=O)[C@H](CCCCN)NC(=O)[C@H](Cc1c[nH]c2ccccc12)NC(=O)[C@@H](N)Cc1ccccc1)C(=O)N[C@@H](CCCCN)C(=O)O [compound 110616] (H-FWKEAK-OH) | 772 nM | – | – | – | – | –
FWKQNKFLFWKQNKCL [compound 110490] | – | – | – | – | – | Ka (PEDV S1 protein; [3]): 5743 M⁻¹ s⁻¹; Kd (PEDV S1 protein; [3]): 0.03522 s⁻¹
N=C(N)NCCC[C@H](NC(=O)[C@H](CC(N)=O)NC(=O)[C@H](Cc1ccccc1)NC(=O)[C@H](Cc1c[nH]cn1)NC(=O)[C@@H](N)Cc1c[nH]c2ccccc12)C(=O)N1CCC[C@H]1C(=O)O [compound 115042] (H-WHFNRP-OH) | 6520 nM | – | – | – | – | –
FWKQNKFLFWKQNKCL [peptide 110490] | – | 1500 nM | 0.0352 s⁻¹ | 5740 M⁻¹ s⁻¹ | > 67.9 | –
WHFNRP [peptide 115042] | – | 6520 nM | 0.0225 s⁻¹ | 3450 M⁻¹ s⁻¹ | > 67.9 | –
FWKEAK [peptide 110616] | – | 772 nM | 0.0236 s⁻¹ | 30500 M⁻¹ s⁻¹ | > 67.9 | –
FWKSKR [peptide 110766] | – | 216 nM | – | – | – | –
